B1: SMCHD1(24–580) wild-type [human] / itself (parent complex)
chain: GHRTVYLFDRREKESELGDRPLQVGERSDYAGFRACVCQTLGISPEEKFVITTTSRKEITCDNFDETVKDGVTLYLLQSVNQLLLTATKERIDFLPHYDTLVKSGMYEYYASEGQNPLPFALAELIDNSLSATSRNIGVRRIQIKLLFDETQGKPAVAVIDNGRGMTSKQLNNWAVYRLSKFTRQGDFESDHSGYVRPVPVPRSLNSDISYFGVGGKQAVFFVGQSARMISKPADSQDVHELVLSKEDFEKKEKNKEAIYSGYIRNRKPSDSVHITNDDERFLHHLIIEEKEKDSFTAVVITGVQPEHIQYLKNYFHLWTRQLAHIYHYYIHGPKGNEIRTSKEVEPFNNIDIEISMFEKGKVPKIVNLREIQDDMQTLYVNTAADSFEFKAHVEGDGVVEGIIRYHPFLYDRETYPDDPCFPSKLKDEDDEDDCFILEKAARGKRPIFECFWNGRLIPYTSVEDFDWCTPPKKRGLAPIECYNRISGALFTNDKFQVSTNKLTFMDLELKLKDKNTLFTRILNGQEQRMKIDREFALWLKDCHEKYDKQIKFTLFK

Variants of: B1
Assay: native PAGE; parent: 0.098; read off a plot

Compared with chain 1 E450Q, chain 1 L171F is lower in screen value: ~0.12 for the first, ~0.008 for the second.

Going from chain 1 Y260C to chain 1 T500K, the screen value rises from ~0.012 to ~0.11.

Compared with chain 1 H325R, chain 1 N116H is lower in screen value: ~0.12 for the first, ~0.093 for the second.

First: chain 1 S112C
Second: chain 1 G114E
The screen value of the first is lower: ~0.096 for the first, ~0.15 for the second.

Going from chain 1 E450G to chain 1 G455E, the screen value falls from ~0.2 to ~0.01.

Work on chain 1 Q322R yielded a screen value of ~0.11.

Source: publication PMC6620310, “A ubiquitin-like domain is required for stabilizing the N-terminal ATPase module of human SMCHD1” (Communications Biology, 2019)
